# Measured values taken from US20260207704A1, “STAPLED PEPTIDES AND METHODS THEREOF” (priority 2022, published 2026).
# *1 amine or outer side, *2 acyl side, *3 side chain or, on linkers, in order; H or OH if unused. Bridges are numbered along the chain shown (N, C = ends). Primed or numbered codes have the meaning given here. [ ]: non-standard residue; d: D form. The star is where a group is joined. PyrS2(6) = (S)-3-amino-1-((pent-4-en-1-yloxy)carbonyl)pyrrolidine-3-carboxylic acid, stapled with another olefin-containing amino acid residue through the olefin group, O=C(OCCCC=[*:3])N1CC[C@@](N[*:1])(C(=O)[*:2])C1; B5(4) = 2-amino-2-(pent-4-en-1-yl)hept-6-enoic acid, stapled through each of its two olefin groups with other olefin-containing amino acid residues, O=C(C(CCCC=[*:3])(CCCC=[*:4])N[*:1])[*:2]; PyrS2″ = (S)-3-amino-1-((pent-4-en-1-yloxy)carbonyl)pyrrolidine-3-carboxylic acid (olefin stapling residue), C=CCCCOC(=O)N1CC[C@@](N[*:1])(C(=O)[*:2])C1; PyrS2 = (S)-3-amino-1-((pent-4-en-1-yloxy)carbonyl)pyrrolidine-3-carboxylic acid, olefin staple residue, C=CCCCOC(=O)N1CC[C@@](N[*:1])(C(=O)[*:2])C1; PyrS2(3) = (S)-3-amino-1-((pent-4-en-1-yloxy)carbonyl)pyrrolidine-3-carboxylic acid, olefin residue, C=CCCCOC(=O)N1CC[C@@](N[*:1])(C(=O)[*:2])C1; PyrS2(5) = (S)-3-amino-1-((pent-4-en-1-yloxy)carbonyl)pyrrolidine-3-carboxylic acid, C=CCCCOC(=O)N1CC[C@@](N[*:1])(C(=O)[*:2])C1; B5(5) = 2-amino-2-(pent-4-en-1-yl)hept-6-enoic acid (two olefin arms), C=CCCCC(CCCC=C)(N[*:1])C(=O)[*:2]; B5(3) = 2-amino-2-(pent-4-en-1-yl)hept-6-enoic acid, two olefin arms, C=CCCCC(CCCC=C)(N[*:1])C(=O)[*:2]; TriAzLys″ = azidolysine residue closed into triazole staple, O=C([C@H](CCCCn1cc([*:3])nn1)N[*:1])[*:2]; Me2Mal = 2-carboxy-2-methylpropanoyl group on the Lys side chain, CC(C)(C(=O)O)C(=O)*; 2F3MeF″ = aromatic residue, Cc1cccc(C[C@H](N[*:1])C(=O)[*:2])c1F; Phe(3-COOH) = N[C@@H](Cc1cccc(C(=O)O)c1)C(=O)O; 2F3MeF = Cc1cccc(C[C@H](N[*:1])C(=O)[*:2])c1F; Phe(2-Cl) = N[C@@H](Cc1ccccc1Cl)C(=O)O; Bta = N[C@@H](Cc1csc2ccccc12)C(=O)O; αAllylPro = C=CC[C@@]1(C(=O)O)CCCN1; BztA = aromatic amino acid residue; tBuAla = CC(C)(C)C[C@H](N)C(=O)O; 3Thi = N[C@@H](Cc1ccsc1)C(=O)O; Suc = O=C(CCC(=O)[*:2])[*:1]; 2F3MeF(4) = Phe analogue; Nle = CCCC[C@H](N)C(=O)O; Orn = NCCC[C@H](N)C(=O)O; TfeGA = not defined here; AsnR = not defined here; GlnR = not defined here; sAla = not defined here; PL3 = not defined here; B5 = not defined here; Aib = CC(C)(N)C(=O)O
# B1: I-124 (peptide)
# peptide: Ac-[αAllylPro]D[tBuAla][B5(4)]D[TfeGA]VAFK[PyrS2″][2F3MeF][Bta][GlnR]A-NH2
# modifications: bridge 10-14; not fully specified (bridges); reading uncertain; also: Lys*3 and GlnR*3 marked *3
# B2: I-3 (peptide)
# peptide: Ac-[αAllylPro]DL[B5(4)]DDAAFK[PyrS2(6)][3Thi][Bta][GlnR]-NH2
# modifications: bridge 10-14; not fully specified (bridges); printed as Ac-PL3-Asp-Leu-B5-Asp-Asp-Ala-Ala-Phe-Lys*3-PyrS2-3Thi-BztA-GlnR*3-NH2; reading uncertain
# B3: I-125 (peptide)
# peptide: Ac-[αAllylPro]D[tBuAla][B5(4)]D[TfeGA]VAFK[PyrS2″][2F3MeF][Bta][GlnR]A-NH2
# modifications: bridge 10-14; not fully specified (bridges); reading uncertain; also: Lys*3 and GlnR*3 marked *3
# B4: I-122 (peptide)
# peptide: Ac-[αAllylPro]D[tBuAla][B5(4)]D[TfeGA]LAFK[PyrS2″][2F3MeF][Bta][GlnR]A-NH2
# modifications: bridge 10-14; not fully specified (bridges); reading uncertain; also: Lys*3 and GlnR*3 marked *3
# B5: I-40 (peptide)
# peptide: Ac-[αAllylPro]D[tBuAla][B5(5)]D[Phe(3-COOH)]AAF[AsnR][PyrS2(5)][3Thi][Bta][Orn]-NH2
# modifications: bridge 10-14; reading uncertain; also: PL3/B5/PyrS2 staple links not placed, printed as Ac-PL3-Asp-Npg-B5-Asp-3COOHF-Ala-Ala-Phe-AsnR*3-PyrS2-3Thi-BztA-Orn*3-NH2
# B6: I-45 (peptide)
# peptide: Ac-[αAllylPro]D[tBuAla][B5(5)]D[Phe(3-COOH)]KAFL[PyrS2(5)][3Thi][Bta]K-NH2
# modifications: not fully specified (residue 6); printed as Ac-PL3-Asp-Npg-B5-Asp-3COOHF-[isophthalate]-Lys-Ala-Phe-Leu-PyrS2-3Thi-BztA-Lys-NH2; also: isophthalate unit next to Lys7, attachment not given here, PL3/B5/PyrS2 staple links not placed
# B7: I-70 (peptide)
# peptide: Ac-[αAllylPro]D[tBuAla][B5(3)]D[Phe(3-COOH)][Nle]AFK[PyrS2(3)][3Thi][Bta][GlnR]A-NH2
# modifications: bridge 10-14; not fully specified (bridges); printed as Ac-PL3-Asp-Npg-B5-Asp-3COOHF-nLeu-Ala-Phe-Lys*3-PyrS2-3Thi-BztA-GlnR*3-Ala-NH2; reading uncertain
# B8: I-67 (peptide)
# peptide: Ac-[αAllylPro]D[tBuAla][B5]D[Phe(3-COOH)][Aib]AFK[PyrS2][3Thi][Bta][GlnR]A-NH2
# modifications: staple 1-4, 4-11; lactam 10-14; not fully specified; printed as Ac-PL3-Asp-Npg-B5-Asp-3COOHF-Aib-Ala-Phe-Lys*3-PyrS2-3Thi-BztA-GlnR*3-Ala-NH2; reading uncertain
# B9: I-84 (peptide)
# peptide: Ac-[PL3]N[tBuAla][B5]D[Phe(3-COOH)]SAFK[PyrS2″][3Thi][BztA][GlnR]A-NH2
# modifications: staple 1-4 (inferred); bridge 10-14; not fully specified (residue 10, bridges); printed as Ac-PL3-Asn-Npg-B5-Asp-3COOHF-Ser-Ala-Phe-Lys*3-PyrS2-3Thi-BztA-GlnR*3-Ala-NH2; reading uncertain
# B10: I-46 (peptide)
# peptide: Ac-[αAllylPro]D[tBuAla][B5(5)]D[Phe(3-COOH)]KAFL[PyrS2(5)][3Thi][Bta]K-NH2
# modifications: not fully specified (residues 6, 7, bridges); printed as Ac-PL3-Asp-Npg-B5-Asp-3COOHF-[succinate]-Lys-Ala-Phe-Leu-PyrS2-3Thi-BztA-Lys-NH2
# B11: I-22 (peptide)
# peptide: Ac-[PL3]D[tBuAla][B5(4)]D[Phe(3-COOH)]AAF[TriAzLys″][PyrS2″][2F3MeF][Bta][sAla]-NH2
# modifications: triazole 10-14; not fully specified (bridges); printed as Ac-PL3-Asp-Npg-B5-Asp-3COOHF-Ala-Ala-Phe-TriAzLys*3-PyrS2-2F3MeF-BztA-sAla*3-NH2; reading uncertain
# B12: I-78 (peptide)
# peptide: XDQXDXKAFKXXXQA
# modifications: not fully specified; Ac-PL3-Asp-GlnR**3-B5-Asp-3COOHF-Lys**3-Ala-Phe-Lys*3-PyrS2-3Thi-BztA-GlnR*3-Ala-NH2
# B13: I-48 (peptide)
# peptide: Ac-[αAllylPro]D[tBuAla][B5(4)]D[Phe(3-COOH)]KAFL[PyrS2(6)][3Thi][Bta]K-NH2
# modifications: not fully specified (residues 6, 7, bridges); printed as Ac-PL3-Asp-Npg-B5-Asp-3COOHF-[diphenate]-Lys-Ala-Phe-Leu-PyrS2-3Thi-BztA-Lys-NH2
# B14: I-74 (peptide)
# peptide: XDQXDXKAFKXXXQA
# modifications: not fully specified; Ac-PL3-Asp-GlnR**3-B5-Asp-3COOHF-Lys**3-Ala-Phe-Lys*3-PyrS2-3Thi-BztA-GlnR*3-Ala-NH2
# B15: I-51 (peptide)
# peptide: Ac-[αAllylPro]D[tBuAla][B5(4)]D[Phe(3-COOH)]K(Suc)AFL[PyrS2(6)][Phe(2-Cl)][Bta]K-NH2
# modifications: not fully specified (residue 6, bridges); printed as Ac-PL3-Asp-Npg-B5-Asp-3COOHF-[succinate]-Lys-Ala-Phe-Leu-PyrS2-2ClF-BztA-Lys-NH2
# B16: I-82 (peptide)
# peptide: Ac-[PL3]D[tBuAla][B5]N[Phe(3-COOH)]AAFK[PyrS2″][3Thi][BztA][GlnR]A-NH2
# modifications: staple 1-4 (inferred); bridge 10-14; not fully specified (residue 10, bridges); printed as Ac-PL3-Asp-Npg-B5-Asn-3COOHF-Ala-Ala-Phe-Lys*3-PyrS2-3Thi-BztA-GlnR*3-Ala-NH2; reading uncertain
# B17: I-20 (peptide)
# peptide: Ac-[PL3]D[tBuAla][B5(4)]D[Phe(3-COOH)]AAF[TriAzLys″][PyrS2″][3Thi][Bta][sAla]-NH2
# modifications: triazole 10-14; not fully specified (bridges); printed as Ac-PL3-Asp-Npg-B5-Asp-3COOHF-Ala-Ala-Phe-TriAzLys*3-PyrS2-3Thi-BztA-sAla*3-NH2; reading uncertain
# B18: I-47 (peptide)
# peptide: Ac-[αAllylPro]D[tBuAla][B5(5)]D[Phe(3-COOH)]KAFL[PyrS2(5)][3Thi][Bta]K-NH2
# modifications: not fully specified (residues 6, 7, bridges); printed as Ac-PL3-Asp-Npg-B5-Asp-3COOHF-[Me2Mal]-Lys-Ala-Phe-Leu-PyrS2-3Thi-BztA-Lys-NH2
# B19: I-69 (peptide)
# peptide: Ac-[αAllylPro]D[tBuAla][B5(3)]D[Phe(3-COOH)][Aib]AFK[PyrS2(3)][2F3MeF″][Bta][GlnR]A-NH2
# modifications: bridge 10-14; not fully specified (bridges); printed as Ac-PL3-Asp-Npg-B5-Asp-3COOHF-Aib-Ala-Phe-Lys*3-PyrS2-2F3MeF-BztA-GlnR*3-Ala-NH2; reading uncertain
# B20: I-52 (peptide)
# peptide: Ac-[αAllylPro]D[tBuAla][B5(3)]D[Phe(3-COOH)]K(Me2Mal)AFL[PyrS2(3)][Phe(2-Cl)][Bta]K-NH2
# modifications: not fully specified (residue 6, bridges); printed as Ac-PL3-Asp-Npg-B5-Asp-3COOHF-[Me2Mal]Lys-Ala-Phe-Leu-PyrS2-2ClF-BztA-Lys-NH2
# B21: I-80 (peptide)
# peptide: Ac-[αAllylPro]N[tBuAla][B5(4)]D[Phe(3-COOH)]AAFK[PyrS2(6)][3Thi][Bta][GlnR]A-NH2
# modifications: staple 1-4 (inferred); bridge 10-14; not fully specified (residue 10, bridges); printed as Ac-PL3-Asn-Npg-B5-Asp-3COOHF-Ala-Ala-Phe-Lys*3-PyrS2-3Thi-BztA-GlnR*3-Ala-NH2; reading uncertain
# B22: I-77 (peptide)
# peptide: Ac-[αAllylPro]D[tBuAla][B5(4)]D[Phe(3-COOH)]AAFK[PyrS2(6)][2F3MeF(4)][Bta][GlnR]A-NH2
# modifications: staple 1-4 (inferred); bridge 10-14; not fully specified (residue 10, bridges); printed as Ac-PL3-Asp-Npg-B5-Asp-3COOHF-Ala-Ala-Phe-Lys*3-PyrS2-2F3MeF-BztA-GlnR*3-Ala-NH2; reading uncertain; also: -CH=CH- in each staple reduced to -CH2-CH2-
# B23: I-88 (peptide)
# peptide: Ac-[PL3]N[tBuAla][B5]D[Phe(3-COOH)]QAFK[PyrS2″][3Thi][BztA][GlnR]A-NH2
# modifications: staple 1-4 (inferred); bridge 10-14; not fully specified (residue 10, bridges); printed as Ac-PL3-Asn-Npg-B5-Asp-3COOHF-Gln-Ala-Phe-Lys*3-PyrS2-3Thi-BztA-GlnR*3-Ala-NH2; reading uncertain; also: Lys10 and GlnR14 marked *3
# Target: beta-catenin (human)
# Sequence (B6V8E6 146-665 limits assumed): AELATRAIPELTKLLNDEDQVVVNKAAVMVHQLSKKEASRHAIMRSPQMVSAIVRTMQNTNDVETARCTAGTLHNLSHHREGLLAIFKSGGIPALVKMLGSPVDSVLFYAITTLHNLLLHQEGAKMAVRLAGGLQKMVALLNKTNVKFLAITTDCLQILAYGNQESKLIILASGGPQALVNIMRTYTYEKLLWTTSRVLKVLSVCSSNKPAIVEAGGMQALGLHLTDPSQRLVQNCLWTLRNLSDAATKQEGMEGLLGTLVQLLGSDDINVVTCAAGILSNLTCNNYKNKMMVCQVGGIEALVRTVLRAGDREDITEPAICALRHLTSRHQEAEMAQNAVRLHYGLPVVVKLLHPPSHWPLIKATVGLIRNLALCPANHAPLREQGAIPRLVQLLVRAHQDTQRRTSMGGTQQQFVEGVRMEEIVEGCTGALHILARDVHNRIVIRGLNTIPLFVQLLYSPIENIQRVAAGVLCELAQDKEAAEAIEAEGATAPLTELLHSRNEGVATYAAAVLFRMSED
# Test: cell-based or functional assay
Binder,NanoBRET Abs IC50 [nM],NanoBRET Abs IC50 (bin >3.0 uM) [nM]
B1,> 10000,
B2,,< 10000
B3,> 10000,
B4,> 10000,

# Target: beta-catenin (human)
# Test: fluorescence polarization
row,Binder,IC50 [nM]
1,B5,> 1000
2,B6,< 50
3,B7,< 50
4,B8,< 50
5,B1,< 50
6,B9,< 50
7,B10,< 50
8,B11,< 50
9,B2,< 50
10,B12,< 50
11,B13,< 50
12,B14,< 50
13,B15,< 50
14,B16,< 50
15,B17,< 50
16,B18,< 50
17,B19,< 50
18,B20,< 50
19,B3,< 50
20,B21,< 50
21,B22,< 50
22,B4,< 50
23,B23,< 50
